Series [1] has as its target ENO1 wt (Homo sapiens, UniProt P06733 1-434). The series is described as follows: competition EMSA.
In series [2] the target is ENO1down (Homo sapiens, UniProt P06733 1-434, K343A). The series is described as follows: competition EMSA.
ENO1down, sequence (P06733 whole entry K343A): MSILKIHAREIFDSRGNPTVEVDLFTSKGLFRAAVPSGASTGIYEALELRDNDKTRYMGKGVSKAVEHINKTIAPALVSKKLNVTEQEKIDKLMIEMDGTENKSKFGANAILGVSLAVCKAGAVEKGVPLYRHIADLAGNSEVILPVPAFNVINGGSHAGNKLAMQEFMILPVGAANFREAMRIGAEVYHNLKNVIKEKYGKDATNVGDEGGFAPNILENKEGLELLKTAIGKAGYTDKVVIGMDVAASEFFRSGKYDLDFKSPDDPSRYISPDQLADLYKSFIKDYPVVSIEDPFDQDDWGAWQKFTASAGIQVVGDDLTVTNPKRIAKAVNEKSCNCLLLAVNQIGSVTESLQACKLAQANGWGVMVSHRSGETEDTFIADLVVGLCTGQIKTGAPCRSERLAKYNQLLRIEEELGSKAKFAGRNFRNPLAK

ENO1 wt, sequence (P06733 whole entry): as the sequence (P06733 whole entry K343A) above, with A343K counted along it

B1: PABPC1 target 35-mer (ssRNA)
RNA: CCUCUUUUAUAAAAUAACCCGGUGAAGCAGCCGAG
In the case of B1, the Ki came out at 27 ± 19 nM in series [1] and 224 ± 12 nM in series [2].

B2: PABPC1 control 35-mer (ssRNA)
RNA: GGCCCCCAGCCCCGGCACUCGCUCUCCUCCUCUCA
Take B2: the Ki was 2587 ± 9 nM in series [1] and 3261 ± 12 nM in series [2].

Source of the values: doi:10.1101/2020.10.14.337444.
